Values belong to the sequence of their own block, whether it stands above or below them.
What was measured:
HLA-A*26:01 = assay: IEDB peptide-MHC binding, purified MHC/competitive/fluorescence; filed as Kd, often an IC50 or EC50 that approximates it; ≥ and ≤ were set here for values at or beyond the usual limits of such assays; settings: source organism: Mus musculus
HLA-B*27:03 = assay: as above; settings: source organism: Mus musculus
HLA-B*39:01 = assay: as above; settings: source organism: Mus musculus
HLA-A*02:01 [1] = assay: as above; settings: source organism: Mus musculus
HLA-B*57:01 [2] = assay: as above; settings: source organism: Mus musculus
HLA-A*03:01 [3] = assay: as above; settings: source organism: Mus musculus
HLA-B*51:01 = assay: as above; settings: source organism: Mus musculus
HLA-B*15:17 = assay: as above; settings: source organism: Mus musculus
HLA-A*24:03 = assay: as above
HLA-B*18:01 [4] = assay: as above; settings: source organism: Mus musculus
HLA-A*11:01 [5] = assay: IEDB peptide-MHC binding, purified MHC/direct/fluorescence; filed as Kd, often an IC50 or EC50 that approximates it; ≥ and ≤ were set here for values at or beyond the usual limits of such assays
HLA-A*31:01 [6] = assay: IEDB peptide-MHC binding, purified MHC/competitive/fluorescence; filed as Kd, often an IC50 or EC50 that approximates it; ≥ and ≤ were set here for values at or beyond the usual limits of such assays
HLA-A*02:01 [7] = assay: IEDB peptide-MHC binding, purified MHC/competitive/fluorescence; ≥ and ≤ were set here for values at or beyond the usual limits of such assays
HLA-A*11:01 [8] = assay: as above
HLA-A*24:02 = assay: as above
HLA-B*15:01 = assay: as above
HLA-A*02:01 [9] = assay: IEDB peptide-MHC binding, purified MHC/direct/fluorescence; filed as Kd, often an IC50 or EC50 that approximates it; ≥ and ≤ were set here for values at or beyond the usual limits of such assays; settings: source organism: Salmonella enterica subsp. enterica serovar Typhimurium
HLA-B*58:01 = assay: as above
HLA-A*31:01 [10] = assay: as above
HLA-A*02:19 = assay: as above; settings: source organism: Salmonella enterica subsp. enterica serovar Typhimurium
HLA-A*69:01 = assay: as above
HLA-B*15:03 = assay: IEDB peptide-MHC binding, purified MHC/competitive/radioactivity; filed as Kd, often an IC50 or EC50 that approximates it; ≥ and ≤ were set here for values at or beyond the usual limits of such assays; settings: source organism: Vaccinia virus WR
HLA-A*03:01 [11] = assay: IEDB peptide-MHC binding, purified MHC/direct/fluorescence; filed as Kd, often an IC50 or EC50 that approximates it; ≥ and ≤ were set here for values at or beyond the usual limits of such assays
HLA-B*08:02 = assay: as above; settings: source organism: West Nile virus strain PTRoxo
HLA-A*29:02 = assay: as above; settings: source organism: West Nile virus
HLA-B*57:01 [12] = assay: as above; settings: source organism: West Nile virus
HLA-B*27:05 = assay: as above; settings: source organism: West Nile virus
HLA-B*08:01 = assay: as above; settings: source organism: West Nile virus
HLA-B*46:01 = assay: as above; settings: source organism: West Nile virus
HLA-B*07:02 = assay: as above; settings: source organism: West Nile virus
HLA-A*01:01 = assay: as above; settings: source organism: West Nile virus
HLA-B*18:01 [13] = assay: as above; settings: source organism: West Nile virus
[14] = source organism: Yellow fever virus
[15] = source organism: Vaccinia virus Copenhagen
[16] = source organism: Salmonella enterica subsp. enterica serovar Typhimurium
[17] = source organism: Sudan ebolavirus
[18] = source organism: dengue virus type 1
[19] = source organism: Vaccinia virus
[20] = source organism: West Nile virus

Kd (HLA-A*26:01): ≥ 20 µM
Kd (HLA-B*27:03): ≥ 20 µM
Kd (HLA-B*39:01): ≥ 20 µM
Kd (HLA-A*02:01 [1]): 0.0037 µM
Kd (HLA-B*57:01 [2]): ≥ 20 µM
Kd (HLA-A*03:01 [3]): ≥ 20 µM
Kd (HLA-B*51:01): ≥ 20 µM
Kd (HLA-B*15:17): ≥ 20 µM
Kd (HLA-A*24:03; source organism: Mus musculus): ≥ 20 µM
Kd (HLA-B*18:01 [4]): ≥ 20 µM
Sequence: CLVSGLSSL

Kd (HLA-A*24:03; source organism: Escherichia coli str. K-12 substr. MG1655): 0.11 µM
Sequence: AWQRTLKWF

Sequence: ALNTITNLK
Kd (HLA-A*11:01 [5]; [14]): 0.0086 µM
Kd (HLA-A*31:01 [6]; [14]): 0.0414 µM

Sequence: KTFKDESIF
IC50 (HLA-A*02:01 [7]; [15]): 66.8 µM
IC50 (HLA-A*11:01 [8]; [15]): 61 µM
IC50 (HLA-A*24:02; [15]): 24.2 µM
IC50 (HLA-B*15:01; [15]): 9.29 µM

Sequence: GVNACQVGV
Kd (HLA-A*02:01 [9]): 0.239 µM
Kd (HLA-B*58:01; [16]): 0.392 µM
Kd (HLA-A*31:01 [10]; [16]): 10.2 µM
Kd (HLA-A*02:19): 0.023 µM
Kd (HLA-A*69:01; [16]): 0.392 µM

Sequence: VIILFQKAF
IC50 (HLA-A*02:01 [7]; [17]): ≥ 544 µM
IC50 (HLA-A*24:02; [17]): 1.61 µM
IC50 (HLA-B*15:01; [17]): ≥ 143 µM

Sequence: SSMVNGVVR
Kd (HLA-A*11:01 [5]; [18]): 0.0261 µM
Kd (HLA-A*31:01 [6]; [18]): 0.0184 µM

Sequence: GSLFTEQAF
IC50 (HLA-B*15:01; source organism: Vaccinia virus WR): 5.94 µM

Sequence: KQKMFSNNV
IC50 (HLA-A*02:01 [7]; [19]): 7.07 µM
IC50 (HLA-A*11:01 [8]; [19]): ≥ 116 µM
IC50 (HLA-B*15:01; [19]): 44.4 µM
Kd (HLA-B*15:03): 0.0193 µM

Sequence: KMFTFWYMR
Kd (HLA-A*11:01 [5]; source organism: Fowlpox virus): 0.0063 µM
Kd (HLA-A*03:01 [11]; source organism: Fowlpox virus): 0.387 µM
Kd (HLA-A*31:01 [6]; source organism: Fowlpox virus): 0.00137 µM

Sequence: GMSWITQGL
Kd (HLA-B*08:02): ≥ 20 µM
Kd (HLA-A*29:02): ≥ 20 µM
Kd (HLA-A*11:01 [5]; [20]): ≥ 20 µM
Kd (HLA-B*57:01 [12]): ≥ 20 µM
Kd (HLA-B*58:01; [20]): ≥ 20 µM
Kd (HLA-B*27:05): ≥ 20 µM
Kd (HLA-A*31:01 [10]; [20]): ≥ 20 µM
Kd (HLA-B*08:01): ≥ 20 µM
Kd (HLA-B*46:01): ≥ 20 µM
Kd (HLA-B*07:02): ≥ 20 µM
Kd (HLA-A*03:01 [11]; [20]): ≥ 20 µM
Kd (HLA-A*01:01): ≥ 20 µM
Kd (HLA-A*69:01; [20]): 1.33 µM
Kd (HLA-B*18:01 [13]): ≥ 20 µM
